Reference: publication PMC5829129, “Synthesis of an Al^18F radiofluorinated GLU-UREA-LYS(AHX)-HBED-CC PSMA ligand in an automated synthesis platform” (EJNMMI Radiopharmacy and Chemistry, 2018)
Like-named read-outs stand apart in the source and are kept apart here.

How the values were obtained:
[1] = assay type: physicochemical; conditions: for Radiochemical purity in the final formulation at room temperature: final formulation vial, HPLC C8, gamma detector, n = 3
Protocol: The radiochemical purity (RP) was determined using HPLC analysis, a reverse phase column Agilent ZORBAX Eclipse Plus C8 4.6x150mm 5 μm column, flux 2.0 mL/min and the following solvent gradient: (A) TFA 0.1% (v/v) in water, (B) TFA 0.1% (v/v) in acetonitrile; 0–7 min 0 %B, 7–10 min (0–50) %B with GAMMA detector. The stability in the labeling milieu, after purification and preconditioning [^18F]-AlF-PSMA, was performed after incubation the final formulation vial at room temperature for 4 h. In both cases, samples were analyzed by HPLC, using previously described chromatographic conditions.

[2] = cited from earlier work
Text: However, the work of S. Lütje, et al. presented in the EANM 2017, obtain a product which is not stable in PBS, TFA or ethanol. In addition, the product presented in vivo a bone uptake associated with instability of the compound. (Lütje et al. [2017]). Nevertheless E. Al-Momani et al. (Al-Momami et al. [2017]) reported that the stability of the radiopharmaceutical was highly dependent of the formulation conditions, being stable in saline solution with 1% of ethanol or acetate buffer pH 6, and not stable in ethanol 10%/PBS. || Our results with the automated synthesis were in agreement with those previously reported by N. Malik, et by a manual process. In this paper the optimal pH of labeling turned out to be 5 and the stability was greater than 90% at 4 h post production (Malik et al. [2015]). || Recently Kersemans et al. ([n.d.]) have reported an automated synthesis of this radiopharmaceutical in a modified SynthraFCHOL synthesis module (Synthra GmbH, Hamburg, Germany), with a similar e.o.s yield. 100 to 200 μg of the peptide were necessary to achieve a labelling yield higher than 70%. The radiopharmaceutical was stable in buffer phosphate 5 mM pH 7 at least during 150 min.

[3] = tested on: LNCaP human prostate cancer cell line xenograft; assay: In vivo PET/CT imaging of LNCaP xenograft mice, tumour/muscle ratio; parameters: species or system Nude N: NIH (S) – Foxn 1nu mice; conditions: PET, 60 min after iv injection (33–46 MBq), LNCaP xenograft nude mice, n = 3
Protocol: Nude N: NIH (S) – Foxn 1nu mice […] were used as prostate cancer tumour model, for in vivo studies. Animals were housed in racks with filtered air under controlled conditions temperature (24 ± 1) °C and relative humidity (40–60)%). They were maintained on a 14:10 h light/dark cycles in the CUDIM animal facility with food and water ad libitum.
For the development of a xenographic human prostate cancer model, LNCaP human prostate cancer cell line (ATCC ATCC® CRL-1740™).
A xenographic human prostate cancer model was used as the prostate cancer tumour model. 5 million LNCaP cells, suspended in 200 μL of culture media (RPMI) with matrix gel, were injected subcutaneously into the left upper leg of male nude mice (2 months old). Appropriate tumour volumes (100–350 mm^3) were achieved between four to six weeks post inoculation. Percutaneous testorerone was daily applied to each mice. Tumours were measured once a week with a microcalliper in two dimensions, and tumour volumes were calculated as (smaller diameter)^2 x larger diameter x π/6.
PET/CT scans were performed using a small animal tri-modality PET/SPECT/CT scanner (TriumphTM, TriFoil, Inc., US) based on Quad-APD detector modules coupled with LYSO/LGSO scintillators (spatial resolution: 1.0 mm; axial field of view (FOV): 3.75 cm). […]
Image processing and semi-quantitative analysis was done using PMOD software, v.3.4. […]

[4] = cited from earlier work; remark: listed apart in the source
Text: However, the work of S. Lütje, et al. presented in the EANM 2017, obtain a product which is not stable in PBS, TFA or ethanol. In addition, the product presented in vivo a bone uptake associated with instability of the compound. (Lütje et al. [2017]). Nevertheless E. Al-Momani et al. (Al-Momami et al. [2017]) reported that the stability of the radiopharmaceutical was highly dependent of the formulation conditions, being stable in saline solution with 1% of ethanol or acetate buffer pH 6, and not stable in ethanol 10%/PBS.

## [^18F]AlF-[GLU-UREA-LYS(AHX)-HBED-CC] [[^18F]AlF-PSMA-11]
[1]
  Time of stability in the final formulation vial: 4 h
[1]; during 4 h post production, room temperature, HPLC
  Radiochemical purity in the final formulation vial: greater than 90%
[1]; room temperature, 1 h post synthesis
  Radiochemical purity in the final formulation at room temperature: 94.6 ± 1.8%
[1]; room temperature, 2 h post synthesis
  Radiochemical purity in the final formulation at room temperature: 92.8 ± 2.5%
[1]; room temperature, 3 h post synthesis
  Radiochemical purity in the final formulation at room temperature: 93.7 ± 2.0%
[1]; room temperature, 4 h post synthesis
  Radiochemical purity in the final formulation at room temperature: 94.2 ± 2.8%
[2]
  Stability in PBS, TFA or ethanol: not stable
  Stability in ethanol 10%/PBS: not stable
[2]; pH 5
  Stability at 4 h post production: greater than 90%
[2]; pH 6
  Stability in saline solution with 1% of ethanol or acetate buffer pH 6: stable
[2]; pH 7
  Time of stability in buffer phosphate 5 mM pH 7: ≥ 150 min
[3]
  mean T/M ratio (T = Tumor, M = muscle): 2.2 ± 0.9
[4]
  In vivo bone uptake associated with instability of the compound: bone uptake
